Counter-ions that a name gives are not always drawn.
Key:
[1] = tested on: patients with relapsed, refractory, or de novo AML; assay: Phase 1/2 study combining gemtuzumab ozogamicin with cytarabine and daunorubicin (Example 1); settings: in the triple combination
Method: The maximum tolerated dose was determined to be cytarabine 100 mg/m^2/day by continuous infusion on days 1 through 7, daunorubicin 45 mg/m^2 by intravenous bolus on days 1 through 3, and gemtuzumab ozogamicin 6 mg/m^2 by 2-hour infusion on day 4.
A detailed safety and efficacy evaluation was performed on the first 19 patients treated with this combination induction regimen and subsequently followed for at least 28 days. There were sixteen men and three women enrolled with a median age of 46 years (range, 20 to 60). One, ten, and three patients were categorized in favorable-, intermediate- and poor-risk cytogenetic groups, respectively. Cytogenetic analysis was not available for five patients.

[2] = tested on: adult acute nonlymphocytic leukemia; settings: used as a single agent; cited from earlier work
patients with AML = settings: cited from earlier work
[3] = tested on: patients with poor prognosis AML; settings: refractory AML; single dose GO 9 mg/m^2 three days prior to first pulse of chemotherapy; cited from earlier work
AML patients = assay: UK safety study combining gemtuzumab ozogamicin with intensive chemotherapy before the MRC AML15 trial (Example 2); format: in vivo, human
Method: The feasibility of combining gemtuzumab ozogamicin with intensive chemotherapy for induction and/or consolidation was evaluated in 67 patients in a safety study in the United Kingdom prior to the start of the Medical Research […] AML15 trial. The aim was to combine gemtuzumab ozogamicin with chemotherapy planned in the trial, (DAT; Daunorubicin, AraC, Thioguanine, or DA; Daunorubicin AraC; or FLAG-IDA; Fludarabine, AraC, G-CSF, Idarubicin) as course 1. Course 1 was given using gemtuzumab ozogamicin in an amount of 3 mg/m^2 on day 1 of chemotherapy in 55 patients. Thirty-three patients received gemtuzumab ozogamicin with DAT. Eight patients received gemtuzumab ozogamicin with DA. Fourteen patients received gemtuzumab ozogamicin with FLAG-Ida. Of the 55 patients treated, 41 […] entered complete remission with course 1 broken down as follows: […] DAT=26/32; (2) DA=7/8; and (3) FLAG-Ida=8/8. Prior experience in a separate trial designated MRC AML12 where 720 patients were treated with H-DAT alone in course 1, 64% of those patients achieved complete remission. In the present study, the median time to ANC recovery (1×10^9/l) was 27 days (range 9-54) and platelets >100×10^9/l was 30 (range 21-48) which is within the mean+ISD of the 720 patients treated with H-DAT alone in the MRC AML12 trial. Non-hemopoietic toxicity was confined to the liver. Overall the maximum toxicity was Grade 1=5 patients, Grade 2=22 patients, Grade 3=13 patients and Grade 4=10 patients. Of the Grade 3 and 4 toxicities, 7 were felt to be definitely associated with gemtuzumab ozogamicin therapy. A possible contributory factor was the inclusion of Thioguanine. Of the 39 recipients where Thioguanine was included in the schedules, 22 developed Grade 3 or 4 liver toxicity compared with 1 for 16 recipients of non-Thioguanine schedules. […]
The overall survival of all patients receiving gemtuzumab ozogamicin in a dose of 3 mg/m^2 with course 1 at 6 months is 73% and at 12 months is 68%. For the patient receiving non-Thioguanine induction with 3 mg/m^2 of gemtuzumab ozogamicin, the 6 month survival is 91%.

[4] = tested on: AML patients <60 years of age; settings: cited from earlier work
[5] = GO 3 mg/m^2 with course 1 chemotherapy
[6] = all patients receiving GO 3 mg/m^2 with course 1

Question: Which maximum tolerated dose ([1]; continuous infusion days 1 through 7) does the source give for `Nc1ccn([C@@H]2O[C@H](CO)[C@@H](O)[C@@H]2O)c(=O)n1` [cytarabine, 4-amino-1-(beta)-D-arabinofuranosyl-2(1H)-pyrimidinone] here?
Answer: Its maximum tolerated dose is 100 mg/m^2/day.

Question: For `COc1cccc2c1C(=O)c1c(O)c3c(c(O)c1C2=O)C[C@@](O)(C(C)=O)C[C@@H]3O[C@H]1C[C@H](N)[C@H](O)[C@H](C)O1` [daunorubicin hydrochloride, (1 S,3 S)-3-Acetyl-1,2,3,4,6,11-hexahydro-3,5,12-trihydroxy-10-methoxy-6,11-dioxo-1-naphthacenyl 3-amino-2,3,6-trideoxy-(alpha)-L-lyxo-hexopyranoside hydrochloride], which complete remission rates [2] is on record?
Answer: The complete remission rates was 40 to 50%.

Question: With `COc1cccc2c1C(=O)c1c(O)c3c(c(O)c1C2=O)C[C@@](O)(C(C)=O)C[C@@H]3O[C@H]1C[C@H](N)[C@H](O)[C@H](C)O1` [daunorubicin, (8S-cis)-8-acetyl-10-[(3-amino-2,3,6-trideoxy-(alpha)-L-lyxo-hexopyranosyl)oxy]-7,8,9,10-tetrahydro-6,8,11-trihydroxy-1-methoxy-5,12-naphthacenedione hydrochloride] as the molecule, how does the maximum tolerated dose ([1]; intravenous bolus days 1 through 3) read?
Answer: The maximum tolerated dose was 45 mg/m^2.

Question: For “gemtuzumab ozogamicin: recombinant humanized IgG4, kappa anti-CD33 antibody conjugated with N-acetyl-gamma calicheamicin via a bifunctional linker”, which “increased risk of developing significant hepatotoxicity” value (patients with AML; patients who did not undergo stem cell transplantation) is on record?
Answer: Its value is ≤ 10%.

Question: And the response rate (patients with AML; patients with relapsed AML)?
Answer: The response rate was < 40%.

Question: And the maximum tolerated dose ([1]; 2-hour infusion on day 4)?
Answer: Its maximum tolerated dose is 6 mg/m^2.

Question: What about the “patients entering complete remission” value [3] of the same molecule?
Answer: The value was “two of four”.

Question: What about the feasibility (AML patients; GO 3 mg/m^2 in course 1 and GO 3 mg/m^2 in course 3, twelve patients) of the same molecule?
Answer: The feasibility was “appears to be feasible”.

Question: And the “complete remission with course 1” value (AML patients; GO 3 mg/m^2 on day 1 of chemotherapy (DAT, DA or FLAG-Ida), 41 of 55 patients treated)?
Answer: The value was 85%.

Question: And the “Grade 3 and 4 toxicities felt to be definitely associated with gemtuzumab ozogamicin therapy” value (AML patients; [5])?
Answer: Its value is 7.

Question: What about the “maximum liver toxicity Grade 1” value (AML patients; [5]) of the same molecule?
Answer: The value was 5 patients.

Question: And the “maximum liver toxicity Grade 2” value (AML patients; [5])?
Answer: The value was 22 patients.

Question: What about the “maximum liver toxicity Grade 3” value (AML patients; [5]) of the same molecule?
Answer: The value was 13 patients.

Question: What about the “maximum liver toxicity Grade 4” value (AML patients; [5]) of the same molecule?
Answer: The value was 10 patients.

Question: And the “median time to ANC recovery (1×10^9/l)” value (AML patients; GO 3 mg/m^2 with course 1 chemotherapy, range 9-54)?
Answer: Its value is 27 days.

Question: What about the “median time to platelets >100×10^9/l” value (AML patients; GO 3 mg/m^2 with course 1 chemotherapy, range 21-48) of the same molecule?
Answer: The value was 30 days.

Question: And the “recipients developing Grade 3 or 4 liver toxicity” value (AML patients; Thioguanine included in the schedules, 39 recipients)?
Answer: The value was 22.

Question: What about the “overall survival at 6 months” value (AML patients; [6]) of the same molecule?
Answer: Its value is 73%.

Question: What about the “overall survival at 12 months” value (AML patients; [6]) of the same molecule?
Answer: The value was 68%.

Question: What about the 6 month survival (AML patients; non-Thioguanine induction with GO 3 mg/m^2) of the same molecule?
Answer: Its 6 month survival is 91%.

Question: What about the “recipients developing Grade 3 or 4 liver toxicity” value (AML patients; non-Thioguanine schedules, 16 recipients) of the same molecule?
Answer: Its value is 1.

Question: What about the liver toxicity ([4]; GO 6 mg/m^2 dose with H-DAT or S-DAT) of the same molecule?
Answer: Its liver toxicity is “increased liver toxicity”.

Question: What about the “toxicity in patients receiving GO in courses 1 and 2” value ([4]; with H-DAT or S-DAT induction, one patient died) of the same molecule?
Answer: The value was “delayed hematological recovery and VOD”.

Source: patent US7727968B2, “Combination therapy for the treatment of acute leukemia and myelodysplastic syndrome” (priority 2002, dated 2010)
